In test [1] the target is VAP, endogenous in cultured rat hippocampal neurons (UniProt Q9Z270). Kind of test: GST pulldown with peptide competition, Western blot densitometry (VAP left on GST-NRG2_CD bait; lower signal = stronger competition by the peptide). To be noted: lysate of untransduced neurons, n = three independent experiments, parent: est. 0.14, read off a plot, scale: normalized VAP signal.

Test [2] has the same target. Kind of test: co-immunoprecipitation (IP: NRG2 (V5)), Western blot densitometry. To be noted: AAV-transduced neurons; n = four independent experiments; parent: 1.00; read off a plot. (In western blotting, separated proteins are transferred to a membrane and probed.)
The target of test [3] is crNRG2 (cleavage-resistant variant of proNRG2) (human) (UniProt O14511). Kind of test: co-IP; co-IP of VAP with crNRG2 from transduced rat hippocampal neurons; neurons untreated (Ctrl), treated 10 min with NMDA (50 µM), or with NMDA and D-AP5 (50 µM); VAP signals normalized to Ctrl = 1.

Consider “D-WT peptide (wild-type D-box peptide of NRG2) D620K; E622K”, for which the response in test [1] was found to be 0.63. For the substance “V5 epitope-tagged proNRG2 (wild type), expressed in cultured rat hippocampal neurons (from UniProt O14511) S494A; S497A; S502A; T506A; S511A”, in test [2], the ratio to parent was 0. As to “V5 epitope-tagged proNRG2 (wild type), expressed in cultured rat hippocampal neurons (from UniProt O14511) S494A; S497A; S502A; T506A; S511A; S613A; T625A; T626A”, the ratio to parent in test [2] is 0.

“V5 epitope-tagged proNRG2 (wild type), expressed in cultured rat hippocampal neurons (from UniProt O14511) S613A; T625A; T626A”: in test [2], the ratio to parent came to 0.73. In test [3], “VAP, endogenous in cultured rat hippocampal neurons (from UniProt Q9Z270 1-249) (natural protein)” registered a normalized VAP co-IP signal after 10 min NMDA 50 µM (Ctrl = 1) (relative to Ctrl = 1) of 0.31 and a normalized VAP co-IP signal after NMDA with D-AP5 50 µM (Ctrl = 1) (relative to Ctrl = 1) of 1.1.

(Values after paper PMC9917868.)
